The results in this text go back to article PMC7973640.

The experiment has as its target PaxA T1-CDD di-domain construct (thiolation domain followed by the C-terminal docking domain of PaxA) (Xenorhabdus cabanillasii JM26). The experiment is described as follows: SEC + NMR titration; analytical gel filtration and NMR titration experiments; complex in slow exchange on the NMR time scale; NMR at 293 K, samples in 50 mM sodium phosphate pH 6.5, 100 mM NaCl, 2 mM β-mercaptoethanol, 5% D2O. In general terms: In gel filtration, larger molecules generally elute earlier.

As for “PaxB N-terminal docking domain (amino acids 1-30 of PaxB followed by a non-native tyrosine) (domain or fragment)”, the stoichiometry N (commonly a count of units in the complex or per binding partner) was 1.
